Substrate in series [1]: O=P(O)(O)OC[C@H]1O[C@@](CO)(OP(=O)(O)O)[C@@H](O)[C@@H]1O
Kind of series: FBPase-2 assay, product/substrate by LC-MS/MS. Format: biochemical, Thermothelomyces thermophilus. The following applies: pH 7, 30 °C, 1 mM ATP, 2 mM MgCl2, 5 mM KPi. From the text:
FBPase-2 assay, product/substrate by LC-MS/MS on PFK2-A

Substrate in series [2]: Nc1ncnc2c1ncn2[C@@H]1O[C@H](COP(=O)(O)OP(=O)(O)OP(=O)(O)O)[C@@H](O)[C@H]1O
Kind of series: PFK2 assay, fru-2,6-P2 quantified by activation of potato PPi-PFK, spectrophotometric. Format: biochemical, Thermothelomyces thermophilus. As to conditions: co-substrate F6P. An excerpt: PFK2 assay, fru-2,6-P2 quantified by activation of potato PPi-PFK, spectrophotometric on PFK2-C

Our source for the Km values is publication PMC9721465, “PFK2/FBPase-2 is a potential target for metabolic engineering in the filamentous fungus Myceliophthora thermophila” (Frontiers in Microbiology, 2022).

B1: PFK2-A (Thermothelomyces thermophilus ATCC 42464) (protein)
chain: MAPKINGTGVMPEDTRICVVMVGLPARGKSYIAQRAQRYLKWLSIPAKTFNVGNYRRKDAPHPSADFFDTNNAEGERQRRAAANAAVTDMIQWFKTGGVVGILDATNSTKERRKWVLERLSKEGIEVLFVESKCDDEELIMANIRDVKTTSPDYQGQDPEQAALDFRERIRHYEKVYKSINDDNDEDHLTYLKIMNVGKKVFINRIQDYLQSRVVYFLMNLHIRPRSVWLSRHGESEYNLEGRIGGDSLLSHRGEEYARKLPELVRQSVGSDRPLTVWTSTLKRTIATARHLPKHYNQLQWKALDELDAGVCDGLTYQEIADQYPEDFQARDEDKYNYRYRGGESYRDVVIRLEPIIMELERSENILIISHQAVIRCIYAYFMQKPQEESPWVPVPLHTLIKLTPRAYDTLVEKYDAKIKAVSTWRGKGSTAKHEDPTPEGGI
notes: pET32a expression in E. coli Rosetta (DE3), His-Trap purified; cDNA-encoded
As a reminder, the Km is the substrate concentration at which the rate is half of its maximum. In the case of B1, the Km in series [1] is 3.81 ± 0.22 mM.

B2: PFK2-C (Thermothelomyces thermophilus ATCC 42464) (protein)
chain: MPEPLQPSFFHVAASGSDPRPSESACQREDAAVAPQSSSLTLRKLAMSHRMGATASDPSSPTIQAIGDSHHGAETHPLHSVLPSPALTNALKESLRTAGAGQSGPPIGVPNGLHFDSPYSRSISSTAPGSPRIPPVRQNSGSHTPRIRPHATTLNIPGMTRSRASPDGRIPDRDVAAKLVIIMVGLPARGKSYITKKIQRYLSWQQHNTKIFNVGNRRRIAAGMVNPTDASPTNAANGHDVPSQAATILSKGTKGPDIVVEEPTALDLNKGKPVPKMDQSAAFFDPKNEAAAKLREQVALDTLDELLTYLLHQGGAVGILDATNSTIQRRKLLVERIKAREPKLGILFIESVCHDQNLLEANMRLKLFGPDYKDQDPHMALEDFKKRVAAYESAYEPLGKWEEDNDLQYIQMIDVGRKIIQHRLRGFLSGGIVSYLTTFNLSPRQIWITRHGQSEDNRAHRLGGDSELTERGHYYGQALYNFITYKRKEWLIQQKNKIASSNFPPQPGDNTPPYPELFQELDDKNFCVWTSMLKRSIETAEYFEADDDYDVKAWEMLNEMNAGAFEGMTYEEIAEKYPEEFEKRARDKLQYIYPGLGGEGYLQIISRLRDMVREIERITDHVLIIGHRSVCRVLMAYFMDLTRDDIADLDMPLGMLYAIEPKPYGIEFHAYKYNEETFWFDELPNYKPRKTVDRNS
notes: pET28a expression in E. coli (BL21/Rosetta DE3), His-Trap purified; cDNA-encoded
In the case of B2, the Km in series [2] is recorded as 0.94 ± 0.15 mM.
